Measured values reported in US10100341B2, “Tailored oils produced from recombinant oleaginous microorganisms” (Corbion Biotech, Inc., priority 2011, dated 2018).

system: Prototheca moriformis (UTEX 1435); assay: cDNA abundance by real-time RT-PCR under nitrogen depletion; assay type: cell-based; conditions: after 24 hours of culture in low nitrogen medium
Experimental: A cDNA library was generated from Prototheca moriformis (UTEX 1435) using standard techniques. The Prototheca moriformis cells were grown for 48 hours under nitrogen replete conditions. […] After about 24 hours in culture, the nitrogen supply in the media was completely depleted. The collected samples were immediately frozen using dry ice and isopropanol. Total RNA was subsequently isolated from the frozen cell pellet samples and a portion from each sample was held in reserve for RT-PCR studies. The rest of the total RNA harvested from the samples was subjected to polyA selection. Equimolar amounts of polyA selected RNA from each condition was then pooled and used to generate a cDNA library in vector pcDNA 3.0 (Invitrogen). Roughly 1200 clones were randomly picked from the resulting pooled cDNA library and subjected to sequencing on both strands. Approximately 68 different cDNAs were selected from among these 1200 sequences and used to design cDNA-specific primers for use in real-time RT-PCR studies. RNA isolated from the cell pellet samples that were held in reserve was used as substrate in the real time RT-PCR studies using the cDNA-specific primer sets generated above. This reserved RNA was converted into cDNA and used as substrate for RT-PCR for each of the 68 gene specific primer sets. […] As discussed in the specification, nitrogen depletion/limitation is a known inducer of lipogenesis in oleaginous microorganisms. Fold increase refers to the fold increase in cDNA abundance after 24 hours of culture in low nitrogen medium.

| Molecule | Fold increased (cDNA abundance) |
| --- | --- |
| Aat03-Amino acid transporter 03 promoter/5′UTR: putative nitrogen-regulated promoter/5′UTR, SEQ ID NO: 64 (nucleic acid, listed as Prototheca moriformis) DNA: GATGGTGGGGTGTCTGCCTTGGGCTGGGTGATGGAGGCTGGTGGTGCGCGGGTTTCCTGATGCATTCTATCTACGCAGTGTCATGGTGTCCATTCCACACACCAGTACACCCTTACACTAAGGATCCATCCCTCCTTCCCTCTTCAGGACTACATGGACCCCACGAGCTACCGACCGGGCTTTCTCAAAAACGTCAAGGTCATGTTTGACATGCGGGACGTGGTGGACGACGTGCAAGGTGCGTCCGGAGTGCGCGCAAATGAGCAAGTCGGGCAATGTGTCGGGGTGGGCACCGGGGCTGGAGATCCGCGATCCCCGAGAAAACGCCGTACCACCCCCCGCGCTATTCCCTCGATTGCGCGCAGATGTGGTGACCGACACGGGGGACAACCTGGCGGACATGGGGCGCCGGACCTGGAAGCACGCCAAGTCGCACACGGGGAGGCTCGTGCAGTCCCCCCCATCGTACCTCAAGGGTCTCTTTGGTCGCGATCCAAAGTACGCTGGTGGCATGGCATGCCCGAAATGAACATCATGTGTGATCTCCGATTGCCAATGGCCACCTCCACGGACCACCTTGCAGGCGGAAGCGCAATCCAGGGCCCGAGCCTGACGAGGACGGAGACTCCTCGTCCAGCGCGGGGTCCCCGACCCGACGCAGCAGCCGACCCCTGCTAACCCGGCAACGATCGGACCAGCAACCTTGCTGTAGTTCCGATCCGTGATGACGGGCATTGCCGCCGCTCGATCCGCTTTGATGACTGTCTATTATTTGCGCGGAGCCCCCTCGGAACCCTACCCCGCTCTTGCAAGCCCCTTGCATCGGAGATCCTCGTGCGCCCGCCATGACCCCACTGGATTGCCCAACATCCTTCTTTATCGTGTAAAATGTGATTCCTCGGCTGCAATCGACTGGCCTTCGCTTCTGGCCCCAAGAGGGCTCGAACGTGCGGCAGCGAGGGCGCTGACACACCCAAGCCCTAGGGCTTTCAACGTCGGCTGCCAGGCCGGATAGGGGGATCGCCTCCTTTCCACCACCCACCTACGAGGGATTCGAGTCGGCTTCCAGCTCAGCTATTCGGCCGCGCCCCCGGCCCTGCAGACGTCCTCCAGTTTCCGAACAGGTCGCTCTCAGAACACCTGCCGCGGCTGCGATACGGCAGGCTCTCAAAGCGTCGAC | 7.87 |
| Aat02-Amino acid transporter 02 promoter/5′UTR: putative nitrogen-regulated promoter/5′UTR, SEQ ID NO: 63 (nucleic acid, listed as Prototheca moriformis) DNA: AGAGAGCGGAGGTGGGGTTGTGAGGTGGGGTTGCTGACCAGGAGCTCGCGTCGCCGAGCGCGACTCGCACACGGTCCAGTTACCCCCCCCTCCGCCCAAACGCAAGCCTCCCATCTTGATGCCTTTCCGGCCACCTATACTATTTCTTAGTTCGCTGTAACATCCAGACCGTCCTGAATAATAACAATGCCCTGTGTCAAGTGCATTCCTAAAAAAATTCTGTCCCAACCAACAATCCCACCTGAAATACCACCAGCCCTGCCCAGTACACTCTTCCAATACCATCTCCCTACCTCCACGCGCAAGCGACCCCCATGCGCGACCAGGCTCGAAAGTGATTTATGACTTGAGACGAGCGAGTGGCGGCGCGGTCGACTGCCTTTTCATCACGTGCCGTACGTCGGCGACCGCTAGGGCTTTGCACGGCAACGCACGGCTTCGCCAACCCGACCAGCCAGGACCTCGACTACTCTACCGCGAATTCGCCTCAAGAAGTCGCCAAATGTGCCATACACCATTCCTTACAGCACTGTTCAAACTTGATGCCAATTTTGACATTCGGGTTGCTCGTTGGCTGCGCCCACATCGGCCGTGAGTGCAGCAGGCGGGATCGGACACGGAGGACGCGGCGTCACGCCCCGAACGCAGCCCGTAACTCTACATCAACACGACGTGTTGCGTAATCCCGCCCGGCTGCGCATCGTGCCAACCCATTCGCGATGGATGGTCGGAAAATGGTGTGCCAACTGCCCTGAGGGAGGCTCTCGCGAAACGGGCACGTCCCTGAAACCGAAACTGTGGCCTTGTCGTCGGCCACGCAAGCACGTGGACCCTAAACACCAAGAAAATCAGTAAACAAGGTTGACATCCTCTACGGGCGAATTGTTTGCCCAACCCTTCATCGCACACTGCCATTATAATGCATCTAGCTCGGCGACAAGTTTAGAAAAGGCAGGCTGCATTGTTCCATTTCGCCGTGGCGGCGTGGGTGCCCATTTTACGAGGTTTGGGCTCCCGGGCAGCGACCGAGCCAGGTCGAGTCCCTCTCGCCCGTCGACAATGTTGCGAACCCCACAAGCGGCTAACAACAACTTGATGGTACCTGTACACTGCCAATTCCTTCTTCCCCGGCCGAGGTTTACACGTGATGGCCATGGCTTCGCATTCAGGCCGACTTCCCATTCCGACTTTCCAGAGGGTCCGCGGACGCTGGGGGTTGGCTGCCTGAGGCCCACCCTTTGTTCCCCGCGTCCCGACAAACACAATTGCGTTACATAAGGGGGAGCCGCCCCCGTTCAGAGTGCAGAAATCTTTCACTATATTTTCCAGTCGTCAGCGAAATCAAGT | 6.5 |
| NRAMP metal transporter promoter/5′UTR: putative nitrogen-regulated promoter/5′UTR, SEQ ID NO: 56 (nucleic acid, listed as Prototheca moriformis) DNA: ACTAATTGCAATCGTGCAGTAATCATCGATATGGTCACAAGTAGATCCCCTACTGACACCCTCTCGTACATGTAGGCAATGTCATCGGCGCCGTCCTGCTGACCGATGCCGACGTAGCAGAGCAGACCCGGGCCGATCTGGGATACGAGCCGGCCCTCCACCTGCGCTCGAGGTGGAATCAAGTAAATAACCAATACACTTTTCGACACCACACAGAGTTGCACGGACGGTGGCGTACCTCTACGCTCGCGCTCTTCACGCGCTGGACGACCGCACGCATGAGCCCGGGTGGCTTGGTCTGGGCTGCAAAAATGCACAACAAACAAGTATCAGACGCTCATGGATGCACACGCGCTCCCAAGCACGCTCAGACTAAATATTACAGTAGCTCGTATCTGATAAGATATCGAGACATACCGCTCAACTCACCCGCAAACTGCGCCCCGCCAGGTGATGCGCACAGGGCCCCACCATGCGATCCATCGCATCGCTCCTCGAGGGCGCTATCACGTGGCCGGAGAGCGTTCACAGCGTACGCCACTGTATCTGGGCGGTATGCGGTCCGTCAACATGGAGACAGATACCCGCACCACCACCTTGCAAGCTCTTCCATATTGGAAGTAGAAAATTGTAATTGTATCATCGCACGAGGGGCCAACTTGCCGTCGGCGAGCTGGGCGACGAACACCACCTGGACGTTGTCGAGACTCGCTCGTGCCGTGCGCCGGGCCGCTGGGTATCCAGACCGTCGCC | 9.65 |
| Aat05-Amino acid transporter 05 promoter/5′UTR: putative nitrogen-regulated promoter/5′UTR, SEQ ID NO: 66 (nucleic acid, listed as Prototheca moriformis) DNA: CCGAGCAGTTCATGGCCAAGTACAAGGACTAGAGACCGGAGGTCGGTAGGCTGAATGGAGCTGGCGTCGTCGTGCGCGACGTGCACGCGATGCGATACTACGACCCCACAAACGCATGCCTCCCATCTTGATGCCTTTCCGGCCATTTATACTATTTCTCATTTCGCTGTAACATCTTGAATAATAGAATTGCCCTGTGTCAAGTGGATTCCAAGAAATATTCTGTCCCAACAAAACAACCCAACCTGAAAACAACCTCAAATACCACCAGCCCTGCCCACCTGCCCAGTACACTTTTCCAATACCATCTCCCTACCTTCACGCGCAAGCGGCACCCATGCGCGACCAGGCTCGAAAGGATTTCACGACTCAGGACGAGCGAGTGGCGGCGCGACCGCCTGCCTGTTCGTCACGTGCCGTACGTCGGCGACCGCTAGAGCTTTGCCTGGCAACCCCCGGCTTCGTCAACCCGGCCAGCCAGGATCTCGACCACTCTACCGCGAAATCGCCTCAAGAAGTCGCCAAAAGTGCCGTACACCATGCTTCGCAGCGCTGTTCAAACTTGATGCCAATCTTGACAATCAGGTTGCTCGTTGGCTGCGTCCACATCGGCCGTGATTGCAGCAGGCGGGGATCGGACACGGAGGACGCGGCGTCACGCCGCGAACGCAGCCCGTAACTCTACATCAACGCGATATGTTGCGTAATCCCGCCCGGCTGCGCATTGTGACAACCCATTCGCGATGGATGGTCGGAAAATGGTGTGCCAACTGCCCTGAGGGACTCTCTCGCGAAACGGGCACGTCCCTGTATCCGAAACTGTGGCATGGCCTTGTCGACCACGCAAGCACGTGGACCCTAACACCACGAAAATAAGTAAAAAAGGTTGACATCCTCTACGAGCGAATTGTTTGCTCGACCCTTCATCGCACACTGTCATTATAATGCATCTAGCTCGGCGACAAGTTTAAAAAAGGCAGGCTGCATTATTCCATTTTGCCGTGGCGGCATGGGTGCCCATTTTATGAGGTTTGGGCTCTTGGGCAGCGACCGAGCCAGGTTGAGTCCCTCTCGCCCGTCGACAACGTTCCAAAGCCCATAAGTGGCTAATAAACAACTTGATGGTACCTGTACACTGCCAGTTCCTTCTTCCCCGGCCGAGGTTTACACGTGATGGCCATGGCTTCGCGTTTCAGGCTGACTTCCCATTCCGACTTTCCAGAGGGTCCGCGGACGCCGGGGGTTGGCTGCGTGAGGCCCACCCCTTGTTCCCCGCGTCCCGACAAACACAATTGCGTTACATAAGGGGGAAGCCGCCCCCCGTTCAGAGTGCAAACATCTTTCATTATATTTTTCAGTCGTCAGCGAAATCAAGTATGTCGCTGACAGGCATGAAGGCC | 6.71 |
